Results reported in patent US20220056119A1.

Target: activin Type II receptors (ActRIIA and ActRIIB) on A204/CAGAx12-Luc cells
Experiment: cell-based or functional assay

B1: Activin A (homodimer of two inhibin betaA subunits), P08476 311-426 (ligand)
chain: GLECDGKVNICCKKQFFVSFKDIGWNDWIIAPSGYHANYCEGECPSHIAGTSGSSLSFHSTVINHYRMRGHSPFANLKSCCVPTKLRPMSMLYYDDGQNIIKKDIQNMIVEECGCS
activation of the A204/CAGAx12-Luc cell line (Smad 2/3-luciferase reporter), EC50: 0.099 nM

B2: Activin B (homodimer of two inhibin betaB subunits), P09529 293-407 (ligand)
chain: GLECDGRTNLCCRQQFFIDFRLIGWNDWIIAPTSYYGNYCEGSCPAYLAGVPGSASSFHTAVVNQYRMRGLNPGTVNSCCIPTKLSTMSMLYFDDEYNIVKRDVPNMIVEECGCA
activation of the A204/CAGAx12-Luc cell line (Smad 2/3-luciferase reporter), EC50: 0.047 nM
